Reference: doi:10.1101/2023.03.30.534746

What was measured:
[1] = molecular target: IRE1α LD 352LNYL355-GSGS mutant (human) (UniProt O75460); assay: AUC
[2] = molecular target: IRE1α LD 312TLPL315-GSGS mutant (human) (UniProt O75460); assay: AUC

stoichiometry N [1] | stoichiometry N [2] | Substance
2 | – | IRE1α LD 352LNYL355-GSGS mutant (from UniProt O75460 24-443) (domain or fragment)
– | 2 | IRE1α LD 312TLPL315-GSGS mutant (from UniProt O75460 24-443) (domain or fragment)
